Publication PMC3339974 (The Journal of Biological Chemistry, 2012)
Each block holds one molecule with its values, some of them ahead of it.

Legend:
[1] = biological target: soluble mouse CD3ϵ ectodomain homodimer (mouse) (UniProt P22646)
[2] = biological target: T1, soluble mouse CD3ϵ ectodomain homodimer (Mus musculus (strain )); assay: crystal structure
T1 chain: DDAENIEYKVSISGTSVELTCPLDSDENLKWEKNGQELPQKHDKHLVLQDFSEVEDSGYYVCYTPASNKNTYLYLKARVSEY

stoichiometry N [1]: 2
Molecule: soluble mouse CD3ϵ ectodomain homodimer (from UniProt P22646 23-108) (domain or fragment)

binding result [2]: binds
B1: 2C11 Fab (Fab, V domains shown)
VH: EVQLVESGGGLVQPGKSLKLSCEASGFTFSGYGMHWVRQAPGRGLESVAYITSSSINIKYADAVKGRFTVSRDNAKNLLFLQMNILKSEDTAMYYCARFDWDKNYWGQGTMVTVSS
VL: DIQMTQSPSSLPASLGDRVTINCQASQDISNYLNWYQQKPGKAPKLLIYYTNKLADGVPSRFSGSGSGRDSSFTISSLESEDIGSYYCQQYYNYPWTFGPGTKLEIK
